We go through two molecules from US20110117625, “Engineered Nucleases and Their Uses for Nucleic Acid Assembly” (published 2011).

The target of data set [1] is T1, Sce7 (I-SceI D44N/D145A, non-cleaving) (UniProt P03882 P03882:1-235, D44N,D145A).
T1 sequence: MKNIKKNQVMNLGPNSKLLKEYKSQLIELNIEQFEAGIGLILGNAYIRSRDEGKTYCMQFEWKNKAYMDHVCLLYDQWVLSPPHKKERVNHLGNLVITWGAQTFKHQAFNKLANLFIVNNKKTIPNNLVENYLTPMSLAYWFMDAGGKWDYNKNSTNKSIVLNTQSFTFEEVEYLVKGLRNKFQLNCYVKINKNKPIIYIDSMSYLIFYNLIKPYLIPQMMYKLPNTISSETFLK
Kind of data set: EMSA; 20 mM Tris pH 9.0, 25 mM NaCl, 10 mM CaCl2, 37 C. Conditions: tags: 6xHis N-terminal with TEV site. How it is done: The binding affinities for the I-SceI recognition sites were determined using a gel-shift assay and are depicted in Table 3.
To measure the dissociation constants, the binding protein of interest, at a range of concentrations between 2 and 400 nM, was incubated with 10 nM DNA substrate in 20 ìL of 20 mM Tris.HCl, pH 9.0, 25 mM NaCl, 10 mM CaCl2, 1 mM DTT, 2% glycerol, and 0.1 mg/mL BSA, for 20 minutes at 37° C. (Sce7 and CdnDI) or 42° C. (CdnDII). Two ìL of 10′ loading buffer were added to each sample, and 10 ìL of each mixture were loaded onto 6% polyacrylamide DNA retardation gels (Invitrogen), and run for 30 minutes at 175 V. The gels were stained with SYBR Gold (Invitrogen) and visualized with ultraviolet light. DNA-containing bands were quantified by densitometry as described above. Concentrations of bound and free protein were calculated from the input amount of DNA and from ratios of band intensities, and the data were fit using Origin software (Originlab, Northampton, Mass.) to the following equation: […]
On the technique in general: Mobility shift assays separate free from complexed probe on a gel.

For data set [2], the target named is T2, I-SceI (wild type) (UniProt P03882 P03882:1-235).
T2 sequence: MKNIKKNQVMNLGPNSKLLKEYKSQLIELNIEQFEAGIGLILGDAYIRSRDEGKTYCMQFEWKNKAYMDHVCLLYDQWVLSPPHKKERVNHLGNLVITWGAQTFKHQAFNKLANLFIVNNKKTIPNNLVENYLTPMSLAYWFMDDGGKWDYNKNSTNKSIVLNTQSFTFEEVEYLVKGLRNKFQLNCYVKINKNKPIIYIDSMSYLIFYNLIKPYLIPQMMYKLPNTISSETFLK
Kind of data set: EMSA; 20 mM Tris pH 9.0, 25 mM NaCl, 10 mM CaCl2, 37 C?
As to conditions: tags: 6xHis N-terminal with TEV site (as for variants).

In data set [3] the target is T3, I-CreI D20N/Q47A (UniProt P05725 P05725:1-163, D20N,Q47A).
T3 sequence: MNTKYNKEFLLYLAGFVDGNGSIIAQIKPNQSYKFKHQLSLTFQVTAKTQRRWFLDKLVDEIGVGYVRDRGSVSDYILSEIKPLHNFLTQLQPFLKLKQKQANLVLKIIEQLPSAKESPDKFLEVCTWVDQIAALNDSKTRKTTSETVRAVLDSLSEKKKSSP
Briefly: EMSA; 5 nM DNA, 20 mM Tris pH 9.0, 37 C; printed D2ON. As to conditions: tags: 6xHis N-terminal with TEV site; chain copies: 2; EcoRI/BamHI overhangs. How it is done: (§1) Various concentrations of I-SceI or I-CreI (generally between 2.5 and 50 nM) were mixed with 5 nM DNA in 20 mM tris.HCl, 100 ug/mL bovine serum albumin, pH 8.0 (for I-SceI variants) or pH 9.0 (for I-CreI variants) in a total volume of 10 ìL. After incubation for 20 minutes at 37° C., 1 ìL of 10× DNA retardation gel loading buffer (Invitrogen) was added and the samples were loaded onto a 1 mm thick DNA retardation gel (Invitrogen). Electrophoresis was performed for 45 minutes at 175 Volts in 0.5× TBE buffer (Invitrogen). Gels were stained for 45 minutes with SYBR Gold stain (Invitrogen) and visualized by UV illumination. Densitometry was performed on a digital image of the gel to determine the relative intensities of the bands corresponding to bound and unbound DNA. Intensities of bound and unbound DNA were used to determine the concentrations of bound and free enzyme at each initial concentration. […] Binding affinities (dissociation constants, Kd) were determined by plotting the concentration of bound enzyme on the y-axis and the concentration of free enzyme on the x-axis for each data point and fitting the data to a rectangular hyperbola using standard nonlinear least-squares fitting procedures, using the equation y=([DNA]*x)/(Kd+x).

Data set [4] deals with T4, I-SceI D44A/D145N (UniProt P03882 P03882:1-235, D44A,D145N).
T4 sequence: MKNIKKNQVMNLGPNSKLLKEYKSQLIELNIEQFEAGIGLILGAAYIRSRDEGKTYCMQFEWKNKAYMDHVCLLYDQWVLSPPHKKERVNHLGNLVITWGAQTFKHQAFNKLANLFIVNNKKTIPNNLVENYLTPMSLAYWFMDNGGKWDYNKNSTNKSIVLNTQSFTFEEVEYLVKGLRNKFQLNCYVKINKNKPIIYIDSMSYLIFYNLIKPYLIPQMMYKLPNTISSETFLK
Kind of data set: EMSA; 5 nM DNA, 20 mM Tris pH 8.0, 37 C. As to conditions: tags: 6xHis N-terminal with TEV site; EcoRI/BamHI overhangs. How it is done: as §1

B1: 80-bp I-SceI site duplex (dsDNA)
DNA 1: GAATTCTGGTTCCGAAGCCTGTCCTGCACGCTAGGGATAACAGGGTAATAATATATGAATCCAAACTAGAGCGGGGCTCT
DNA 2: AGAGCCCCGCTCTAGTTTGGATTCATATATTATTACCCTGTTATCCCTAGCGTGCAGGACAGGCTTCGGAACCAGAATTC
A word on the Kd: it is the free concentration of one partner at which half of the binding sites on the other are occupied at equilibrium, for simple one-to-one binding. Read a high Kd as weaker binding. Consider B1, for which the Kd in data set [1] was 13 nM; in data set [2] it was 62 nM.

B2: pSCI insert with I-SceI and I-CreI sites (142 bp) (dsDNA)
DNA 1: AATTCTGGTTCCGAAGCCTGTCCTGCACGCTAGGGATAACAGGGTAATAATATATGAATCCAAACTAGAGCGGGGCTCTTGACGTTTGGCTCAAAACGTCGTGAGACAGTTTGGTCAGTTGTAAATATCTAATATTCCAATG
DNA 2: GATCCATTGGAATATTAGATATTTACAACTGACCAAACTGTCTCACGACGTTTTGAGCCAAACGTCAAGAGCCCCGCTCTAGTTTGGATTCATATATTATTACCCTGTTATCCCTAGCGTGCAGGACAGGCTTCGGAACCAG
Regarding B2, the binding result in data set [3] and in data set [4] was “binds” in each case.
